Test results: US20240026407A1, “MODIFICATION OF SAPONINS” (GLAXOSMITHKLINE BIOLOGICALS SA, priority 2020, published 2024)

B1: 1014 (protein, listed as Thermoclostridium stercorarium)
chain: MMRVYNLKTNRIKNPMGFVINKPKLSWLVESDTAKHQVAAQVEISADINFENIIFDSGKRTDIDSISYSPQVELKPRTRYYWRVRVWGDDGSEAVSEAAWFETSKMDEPWKAKWITPDFDPSVHPVVFTDFSIERDVADARAYVCGLGLYEMSVNGEKTGDEYLAPGLVAYDKWIPYQTYDITSQLKKGINTAEFLLGNGWYKGRYGLNRKQPFRYGNEFALICEIHITYQDGTADVIYTDTSWKARKSKVIDSGIYDGEIYDDTFCDDAVYPVRIADLDVNKLEPRRSPGIKIKERIKPAEIIRTPEGETVIDMGQNMVGWLEFTNRAPKGAEIMLQFGEVLQDGNFYRDNLRTAKCEFHYISDGKVKKVRPHFTFYGFRYVKLTKWEGEVNPEDFTGLVLYSDLERTGNITTDNSLVNRLFLNALWSQKGNFLDVPTDCPQRDERMGWTGDAQVFSGAAAFNMDVFAFFGKYLYDLKQEQKARGGNVPVVVPAHDVKQNGACGWGDAAVIIPWNMYLHYGDVSILEQQYKSMKGWVDYIKSKDDAAGGRRLWLNDFHYGDCVSLDVEDPFNRFGGTEHAYLASAFYSYSAGIVSKAAKILNKKEDAEYYRKLSEEVKNAIRKEYFTPTGRLAVNTQTAYVIALYMDLVPDEWKERVAFELRKKLKETKYHLRTGFLGTPYLCRVLSEYGSNDIAYRLLTNTDYPGWLYPVTMGATTIWERWNSMLPDGKVSDTGMNSFNHYSYGSIVEWIYRNAAGIQPVEDAPGFRRFRLKPQPHYLLKSLDAEFLSPAEKIISRWNINENGSVSFYFRIPFNTTAELVLPDTEVQDWKEFMSLNVVNILILTCLKDLTRKCTEQILQCGKFMKMRGQKKL
B2: 1044 (protein, listed as Streptomyces sp.)
chain: MHETHPRRGGMTRRSVLAAGLTTGVLAALGPAAEAAASPAASPAASPAASASAGATPTASWFAAPARAVRPKFRWWWPDGLVDPAEIAREIDQMADAGFGGAEIAAVHHSISDTSVLDTAHHGWGSAPWRDGVKAALRQAARRGLTVDLTLGPSWPVAVPGVTPDDEAAVKELAYGKATLTGGAAFDGPVPAPVYAPASGVTVQKLFAVQAARVDTAYSSGKATGLDVDSVTDLTNRVADGNLRWTPPDSGTWVVLSYWQRGSGQQPEAGPHSSPAAYVIDHFSAAGTAAVTRYWDTAILDSTLRKLLKAAGGAFFEDSVELESKGLQWTPGLPDAFRAHTGRDLLPYLPAVILDNSNQVFAFEARLTQEIRHDFWETVSNLFNEHHLGALKKWAHGHGMKLRSQPYGLQTDAIASAAVLDIPEGESLGFKNLDDYRCLAGGRDMAGSRVLSCESGAYAGGAYNTTWDKFLRTMGGAYAAGVNQTVIHGFSYATAPGVSWPGFAAFSPYSGAPGYGESWGPRQPTWHHVADVAGYIGRVQQVLQSGTVRADVAVFRQTGYTATGIGASWLTSTGVPLGWTHQFLSGPLLDLPNAKVSGKRLAPDGPAYKALFLEGDFFYGSTPTLSVDDAHKLLKFARAGLPTVLLGAFGQALTPGLPDDGETDELRALTAELLALPNVRNVTDKTLVGAAFAELGVTSDVSYSVSSTLLNAHRVTDDADFYYLCNGKHAETVKPPVAAIDHDVTLRSTVRGGAGTVPYLLDPWSGRVTRLARYTRDGDAFTFRVTLQPGETLVVALGRPGLFGNRDGNRPHAVATDADEALFTGGRLAVRASAAGTFTTTLSTGRKVTTKVAEVPAAVTPDRWTLSVDDWRPGADATSTEVVRHSLTLDALLPWSQIPELADVGGIGTYRTTVTLPKSWSSATGALLRLGSVTDTCRVTVNGVRLDPVDRVNPVVDLGGRLRKGANTLEIEVATPLFNRLRVSNPAVFGTAARQAYGLVGPVQLVPYVQRTVA
B3: 1081 (protein)
chain: MKNSNLFAKLLAVVLIFLSNPTLAVEWTAEWIWSKERFTDPNSWVVIRKEVNLESVGQNSTAYISADTKYWLWINGQLVVFEGSYTGGPSPVKPSPRVDFYPIASNKYYDQVDIGRYLKKGKNTIAALAWYYGDNGQKGTYISSNTGGFIFQAHVGDNVIATDSSWKVLPHPAYDKKVIKKSPYRVAAWSVKYDARKDLNDWSNKAWYMPGYDDSDWQTPRIKRQPPRPPFFGLYPSEIPPLNNYGLANCENYPESKFPFISDGKTIKCKLDFNKNFTPYFDIEAKAGQQIHIKSNMRLNTIETFYTTKAGRQQFESYSWLNGRIIEYRIPKGVKVHGLKYRWTGVGTTPGHFEADDAWYSRIWQMAENTLYICARDNFMDTPDRERGLWIGDVADQASYLFYSMDKPGRDLLKKAIKVTLAFSDSESGIFAGLGPGRFRELPAQSLQFIEQGIWHYYYNTGDLETLKFAYPYVHRYLTLWGIKDNGLATFRTGDWKWTDWGPQDTIDYDVIQNALYYSALVSARKMAKAVGDYTHIGLYSHRINSIKQAYQKHYWQNGYFSSNPNKFKDDRANAIAILFGLAKPEQYQQIVDNVLIPNHFASPHFEWMVYNAMAIAGRYEDALQRMKTRYAKQVDNQALSTLAEYLPSGGTENHAWNAPSTVLSQHIAGIAPTSVAWESYQVMPNMAHFKRVKQFVPSVQGDIDFEIQRDQQTVKIEIDSPENTTAIIGVPKQYFAIQTIMVNGKKLWENGQLTASISGIKLAGEDNKYVKFEVQPGHWLVTAQR
modifications: Catenovulum agarivorans
B4: 1030 (protein, listed as Lactobacillus crispatus)
chain: MKLVRIEVNHMETPIGFNLDNHLHLVGFLDGPVTSKLQRKLIIKAHDKEIVTFDWENADNLIFDFPINLTARTRYEVEMSVKNDREMSTATTYFETGQIDETLKGKWIGTEHKDLHSIILYKKFTTKDVKKARLYISGLGLFEAYLDGNKIGNEFLTPGFTDYNYDLQIESYDLTTELLKSGEHTLAIMLGDGWYRGKLGLKVHGGQPNNYGDQLMAIADLRINDDQQIIVTDKSWQVTTSPITHSGIYYGEDLDDNRQLNELANAIELTSPTKHLVDRQSLPIQRHEQFSVKEIIKTPSGATVLDFGQNMAGWLEFKNTIPKGEKVSIEFGEIMLDGEFYRDNLRSARAQFTYVSDGKEKWVRPHFTYFGFRYVKLNDFEGEIDPNNFRAVALYSNMIETGEIITNNSDVNRLFENVKWGQKSNFIDIPTDCPQRDERLGWTGDAAIFSKTASYNMDTYQFLKKYAYDIAVEQSKNNGFVPLYVPAVDTKDGGKAVWSDAATIIPWIAYKRTGDLAILRQNIGAMMSWVDWIHDRAVSHGQEYLWLGDDQLGDWLALDTEDIMKLKGKTPDDLIASAYYYYSAKLVSQSAETLNMKHEKQYYGQLAKLIKHAFINHFFTKDGLSIADTQTGLALCLSFKLYPANAKDNLINKLVEKVEVNQNHLNTGFVGTPLLLPALTDNGQQDLALRLFLNTDFPSWLFEVKNGATTIWERWNSVDSEGHIAQNGMNSLNHYSSGAVMEWAYEDLLGLKQNGNDAVFKPMLTAKLNQISGQIALPTGIVKVAWHIKSSKLIHLEMDIPYGSHLKLILPKHEQDIPTIFKSGHYELDVEVINPIVEAFDVHTPLAEYRNQTSLTKKLSELVPFWGFLAMPGNMDHFAKYSLLQLSREMRGIGFKPFTQEDIEKINQLFKEYHFKGAEK
B5: 1006 (protein, listed as Geobacillus sp.)
chain: MAAIKATDLRTEGILNPFGLDAERPRLSWSFGQPAGAGSGQSAYRIAVASSEERLKLGEPDVWDSGIVRSCEHVSIPYEGASLMPRRRYYWHVTAWDGQGQPAVSKAAWWETGLLAEAKWSERWIGDAAEAADRGPMIQLRKSFEVKKPVARARAYVTGLGHYELRLNGAKVGDRQLEPGWTNYDKTVLYSVYDVTPGLRQGENAVGVLLGNGFYRVAGGRYAKFKGSFGNPKCLAELVIEYADGTAETIVTDGTWSLSDSPLTFSCIYGGEDYDAGLERTGWDGPGFVEDGDWRRACELEPPPGKLTAQSSPPLAITKRLPARSVSEPRRGVYVYDLGQNFSGWPCIRVSGPNGTRVKLKPAELLTEEGLANQKYSGSPYELNYVLKGEGIEEWHPRFTYYGFRYVQVEGAAPAGEGVEESDLPVLHGLEGHMIGPDVEDAGGFRCSDPLLNRIHEIINWAILSNMKSVFTDCPHREKLGWLEQLHLMGPSVMFNYECEALLEKIMRDMSDAQLPNGMVPTTAPEYVVFEEPWHMFRDAAAWGGSYILLAWEMLRRYGSVGTLERHYEGMGRYVHYLTEASDGFILRGGLGDWYDIGPKGPGFAQNTSVALVETAIFFGLARALGEIALVLGKAEDASAHSRLSESIRTAFHSAFYDTANAMYAEGSDTAIAMPLAIGLAPEELRGVLLDRLVRNIGERGWQTTAGDVGHRYVLSALASGGRSDVVGKMARNPHAPGYAYQVAHGATSLTEAWDGPTVGKSQNHFMLGHLEEWLYASLAGLDYRYRPEVGRYLVKAKPTVVQGVEWAEAWQQLRSGRASVRWELGPSNQMTVRVDIPANSEGLIRIPSSPDTPVLASGPDVAYEGHEDGHAVYRSGPGSYCFTFAANHRTTEMERERM

How the values were obtained:
Format in all cases: biochemical, Quillaja saponaria
[1] = Experiment 6-1: screening of rhamnosidases for derhamnosylation of saponins in treated bark extract (2%), QS-17 2310 to QS-18 2164 (PAR %); details: TBE 2%, pH 7.5, 30 degC, 18 h; TIC peak area ratio percent, LCMS/MS; negative controls 3.061, 2.429
[2] = Experiment 6-1: screening of rhamnosidases for derhamnosylation of saponins in treated bark extract (2%), desglucosyl-QS-17 2134 to QS-21 1988 (PAR %); details: TBE 2%, pH 7.5, 30 degC, 18 h; TIC peak area ratio percent, LCMS/MS; negative controls 2.719, 2.158
[3] = Experiment 6-1: specificity of rhamnosidases towards other rhamnose residues (C3 saccharide rhamnose, C28 saccharide rhamnose); details: TBE 2%, pH 7.5, 30 degC, 18 h; LCMS/MS; negative controls 0.18, 0.17
[4] = Experiment 6-1: screening of rhamnosidases for derhamnosylation of saponins in treated bark extract (2%), QS-17 2296 to QS-18 2150 (PAR %); details: TBE 2%, pH 7.5, 30 degC, 18 h; TIC peak area ratio percent of rhamnosylated starting saponin to derhamnosylated product, LCMS/MS; negative controls 4.876, 5.225

Row | Molecule | Peak57 (PAR %) [1] | Peak75 (PAR %) [2] | ratio PP/QS-21 [3] | QS-17 (PAR %) [4]
1 | B1 | 3.359% | 2.741% | 0.18 | 5.309%
2 | B2 | 3.156% | 2.274% | 0.16 | 5.370%
3 | B3 | 2.624% | 2.473% | 0.17 | 5.348%
4 | B4 | 3.621% | 2.127% | 0.17 | 5.315%
5 | B5 | 3.237% | 2.645% | 0.18 | 5.339%
